As usually defined, the IC50 is the concentration at which inhibition is half-maximal.

Among the data in patent publication US20090004210A1 are IC50 values, retold here.

B1: Peptide 4020 SWELRQA (peptide)
peptide: SWELRQAC
B2: Peptide 4024 SSEFRVS (peptide)
peptide: SSEFRVSC
B3: Peptide 4025 DWEFRD (peptide)
peptide: DWEFRDC
B4: Peptide 4023 SQEFRTP (peptide)
peptide: SQEFRTPC
B5: Peptide 4021 SVEFRYH (peptide)
peptide: SVEFRYHC
B6: Peptide 4022 SYEFRHH (peptide)
peptide: SYEFRHHC
B7: Peptide 1238 DKELR (peptide)
peptide: DKELRC
B8: Peptide 1239 EYEFRG (peptide)
peptide: EYEFRGC
B9: Peptide 1235 DRELRI (peptide)
peptide: DRELRIC
B10: Peptide 1237 DRELKI (peptide)
peptide: DRELKIC
B11: Peptide 1241 DWEFRDA (peptide)
peptide: DWEFRDAC
B12: Peptide 1236 DKELKI (peptide)
peptide: DKELKIC
B13: Peptide 4032 DWELRQ (peptide)
peptide: DWELRQC
B14: Peptide 4035 GKEFRT (peptide)
peptide: GKEFRTC
B15: Peptide 4031 DAELRY (peptide)
peptide: DAELRYC
B16: Peptide 4033 SLEFRF (peptide)
peptide: SLEFRFC
B17: Peptide 4036 AYEFRH (peptide)
peptide: AYEFRHC
B18: Peptide 4034 GPEFRW (peptide)
peptide: GPEFRWC
B19: Peptide 4002 SWEFRT (peptide)
peptide: SWEFRTC
B20: Peptide 3006 EAEFRG (peptide)
peptide: EAEFRGC
B21: Peptide 3007 DYEFRG (peptide)
peptide: DYEFRGC
B22: Peptide 3002 DWELRI (peptide)
peptide: DWELRIC
B23: Peptide 3001 DKELRI (peptide)
peptide: DKELRIC
B24: Peptide 3005 YAEFRG (peptide)
peptide: YAEFRGC
B25: Peptide 3009 SFEFRG (peptide)
peptide: SFEFRGC
B26: Peptide 3008 ELEFRG (peptide)
peptide: ELEFRGC

In the first experiment the target is monoclonal antibody (mAb) to detect Aβ42-derived peptide species with free N-terminus (generated in Example 1). Kind of experiment: competition ELISA: soluble peptide against plate-bound DAEFRH-C-BSA for the biotinylated mAb, FIG. 9. For orientation: An ELISA detects its analyte on a solid surface through an enzyme-linked reagent.
In turn, Peptide 4063 DKE(Nva)R showed an IC50 greater than 0.5 mg/L.
Consider Peptide 4064 DKE(Cha)R, for which the IC50 is greater than 0.5 mg/L.
The molecule Peptide 4062 DKE(Nle)R displayed an IC50 greater than 0.5 mg/L.

The target is the same in another experiment. As to the kind of experiment: competition ELISA: soluble peptide against plate-bound DAEFRH-C-BSA for the biotinylated mAb, FIG. 7.
The molecule B1 showed an IC50 greater than 0.5 mg/L.
In turn, B2 showed an IC50 of less than 0.5 mg/L.
Turning to B3, the IC50 is less than 0.5 mg/L.
Regarding B4, the IC50 was less than 0.5 mg/L.
Molecule B5 gave an IC50 of less than 0.5 mg/L.
Regarding B6, the IC50 is less than 0.5 mg/L.

For the next experiment the target is unchanged. Kind of experiment: competition ELISA: soluble peptide against plate-bound DAEFRH-C-BSA for the biotinylated mAb, FIG. 5.
In turn, B7 gave an IC50 of less than 0.5 mg/L.
For B8, the IC50 is greater than 0.5 mg/L.
The molecule B9 yielded an IC50 of less than 0.5 mg/L.
On to B10, for which the IC50 is greater than 5 mg/L.
For B11, the IC50 is less than 0.5 mg/L.
On to B12, for which the IC50 is greater than 5 mg/L.

The next experiment has the same target. Kind of experiment: competition ELISA: soluble peptide against plate-bound DAEFRH-C-BSA for the biotinylated mAb, FIG. 8.
Turning to B13, the IC50 is less than 0.5 mg/L.
With B14, the IC50 was less than 0.5 mg/L.
Still for that read-out and setting: under B15 stands less than 0.5 mg/L.
The molecule B16 registered an IC50 of less than 0.5 mg/L.
The molecule B17 returned an IC50 greater than 0.5 mg/L.
On to B18, for which the concentration for half-maximal inhibition (IC50) is less than 0.5 mg/L.

The target is the same in a further experiment. As to the kind of experiment: competition ELISA: soluble peptide against plate-bound DAEFRH-C-BSA for the biotinylated mAb, FIG. 4.
Molecule B19 registered an IC50 of less than 0.4 mg/L.

The target is the same in another experiment. As to the kind of experiment: competition ELISA: soluble peptide against plate-bound DAEFRH-C-BSA for the biotinylated mAb, FIG. 2.
In the case of B20, the IC50 is less than 0.5 mg/L.
B21 had an IC50 of less than 0.5 mg/L.
On the same count and under the same terms, under B22 stands greater than 0.5 mg/L; under B23, less than 0.5 mg/L.
On the same count and under the same terms, under B24 stands greater than 0.5 mg/L.

The target is the same in the next experiment. As to the kind of experiment: competition ELISA: soluble peptide against plate-bound DAEFRH-C-BSA for the biotinylated mAb, FIG. 3.
For the molecule B25, the IC50 was less than 5 mg/L.
In the case of B26, the concentration for half-maximal inhibition (IC50) was less than 5 mg/L.
